experiment: soluble on expression in E. coli; label from the status in PepcDB or PDB records

Row | Sequence | soluble on expression in E. coli
1 | MEDHKPRPCQPRPWLKEQKCPTGFWCHEGQSEHSFYCCPSSRKFANRCHLPPAVGYGKQRMRRFYFDWKTDACHELQYSGIGGNENIFMDYEQCERVCRGAGEPPILLPSNMKVLPKETTKDFKKMEKPEMEKKMVYPKEVAAPVSLQPPSLRTTKPADVHESFYTVSPQTSSVPHPTTLSTTHSKQKPTTTEAEIPEVFDPNPCSLSPDKGFPGSVTVNMWYYDPTSTTCSPFMYLGKGGNSNRFETSEECLETCGIGKPTRKSCELPPAIGNGPFNIPRYYFDRVTKKCERFFYSGRDGNDNRFYKKNKCERLCLRKKPKKKENIYEFTTTPSTPSVIYESTPLRIIQNLVPNYVTPTPTQSRITVEPWIERFTEKSSIYEYSTTPHPTLIYEPHGETLPTLNPPTTTTPSIVDHVFSSLMNTQQQKLVEFVHVPTDQKTTGETPRKFSSHETIPFGQVEQQPIPMNPFGSAKPTVNKFGMKVEPYQTTDYMLPPGYPSSSIYLPQPAYPEVKPNSSVILSSTQSQNNTSPQTIPASASVTNSATSTVVDTSSQFQIPYVSSPASATSNIFVGPIPPPSNSGSSSQAPDSSQSATNSSNSGSGESKIPNVGPIAPPSQLSQVGVFVTGSTSTSPVVSINFIKTENSVQQPTHYIVPSQSSPPPDPYVISNPIPTLSPTAGTPSFNIYPYPSLPPPTTTISPLPTLLPPNISYVTSPPDNNDSPCSRSIYGDATIMCENRQEICPMGTFCQIGQGQSICCPIMDEPPCEQAIEEGVGNVLLRRWYFDPATRLCQPFYYKGFKGNQNNFQSFDSCSRACGATNVCSGGSPQMSVHTHLLSCNFESDCPYSHDCIQSTPHNLCCPKTSHLVPESIPAPPFEPVQMPIPAPPAQVSQPQEQSSNMVIDFVPATHASNNLCGQPIDVGFGVLSEHRWAYSAGQCTSFLYSGHGGNMNNFLTRNDCMKTCQSPMPPPSSQCSQPAASGQGDQYLSRYFFSPEYRQCLHFIYSGEGGNQNNFDSLTDCLETCVANGIKFSSLANSPMSAVPPPPPTLMPSPPVTSSPFTFVPRNMCPQGDPLITVDGTPIQCDPSKAAKCPGDHVCTPRGNEAYCCPSPMNFCLQSRPPISVCSGPDFEPVREIRFTYDPLADRCVRFSFQNCRGAAFSPTGSLNNFVSNSQCNRLCCNQGYNLVYKRRLLMAMNDDPIVEDD | not soluble
2 | MPLDPQIKPILERIRALSIAASPQELRRQVEEQSRLLTAAVQEPIAETRDVHIPVSGGSIRARVYFPKKAAGLPAVLYYHGGGFVFGSIETHDHICRRLSRLSDSVVVSVDYRLAPEYKFPTAVEDAYAALKWVADRADELGVDPDRIAVAGDSAGGNLAAVVSILDRNSGEKLVKKQVLIYPVVNMTGVPTASLVEFGVAETTSLPIELMVWFGRQYLKRPEEAYDFKASPLLADLGGLPPALVVTAEYDPLRDEGELYAYKMKASGSRAVAVRFAGMVHGFVSFYPFVDAGREALDLAAASIRSGLQPS | soluble
3 | MGSDKIHHHHHHMTISYEKFHLKEVINASGKMTILGVSKVSEAVLAAQRFGGEHFFEMSELSVQTGAFLANLLKVEDAQIVSSASAGIAQSVAALIGKGSLYHAYHPYTEKIEQREIVLPKGHNVDYGTPVEVMVAQGGGQVVEAGYANMCSPEHVEMMISEKTAAILYIKSHHTVQKSMLTVAEAAKVAQRHKVPLIVDAAAEEDLFKYTEAGADLVIYSGAKAIEGPSAGLVVGKKEYIDWVRLQGKGIGRAMKIGKDNILGFTQAVEEYLAHGSESGASMQERLKPFVEAINNLSDLTAKIVQDGAGRDIYRASVKVDGRKTAKEVIQALKAESPAIYTREYQANNGIIEFDIRSVNQEEMNKIVQRLQEIMDKKEK | not soluble
4 | SCQDLRVLNAIRDYHIGIPLTYTQYKQLTIQVLLDRLVLRRLYPLAIQICEYLRLPEVQGVSRILAHWACYKVQQKDVSDEDVARAINQKLGDTPGVSYSDIAARAYGCGRTELAIKLLEYEPRSGEQVPLLLKMKRSKLALSKAIESGDTDLVFTVLLHLKNELNRGDFFMTLRNQPMALSLYRQFCKHQELDTLKDLYNQDDNHQELGSFHIRASYAAEERIEGRVAALQTAADAFYKAKNEFAAKATEDQMRLLRIQRRLEDELGGRFLDLSLHDTVTTLILGGHNKRAEQLARDFRIPDKRLWWLKLAALADLEDWEELEKFSKSKKSPIGYLPFVEICMKQHNKHEAKKYASRVGPEQKVKALLLVGDVAQAAEVAIEHRNETELSLVLSHCTGATDGAIADKIQRARAQAQKK | soluble
5 | MPMVVAKRNARERTRVHTVNQAFLVLKQHLPSLRQFTKRVSKLRILNAAITYIDTLLKLIQSSEAVPQSVISATLGPIVPTPVRAVHKISKPDTVISQPIRPLAPVLPRHETYLPAPIAATCAPDHSLVDYRSTFASSLAPPVPMQMPSVFSPQPTFPYMKSLLDYPTYFYQPSTAPPPPPAPTAPQSHLIVNNQLVPMPSYQCF | not soluble
6 | MGSDKIHHHHHHMEFIEFGYGTSTDENSLKAGAHAASDALKMMKKYSEKPNIVFLYSSPDYDPEEVLNGVKLILGNSVQIVGGSSKFQICGNKFLENGVSVGILGSKYFNTGMGVGLGISINPKESGKKAVKDAVENLGMLPKLLYVITDFCKCEEQVLKGIIEELGVTIPIFGGVSSDDFEFEHTYQYGNDVYLDSIVCVAFGGDIVPKISYNNYEYGENSGKLENIITKSEKRSIEEIGNISAVKRYIEISGYKGTVNELEKDPEFYLSHPLGILDTTGDIHLKGPISIKNKKLITGSNISNSNELKIENIDKNAIKNIFETNTSVLNNTQPHYEPALTFCNISSFLSEINPDEIEKLIEKSDINPFFGSSTFGEISLKKYGNYSMSMCSFAPDLVTISAKEGIHMFTKHPATKETLIKIHELGGSVKVEELAKSLGIHRRSAYDRIDPLLKYGFIEKDQAVIKITEFGKLLLKFEF | not soluble
7 | MNKQPGQQPLRSLSLTSAAKSPEEVEPEQDSKKGEPRAKAAGFGGGGGGGKRLPEARSTPMVIPNQVAAMPVQMTGFVQLVANNILSAIAHTNSVMVVQCIKPLEIFTGFETPNRYVVHDMYCRPLLYCMERSNIFARQYEGNDRNFGMQIMDTHGAQVMTCFRGRPCCSTDDFLSTQFLDQQIGMMKKECCNPNFELVGSGCNQPLLIQSPGCAGCGGTQKFPVMTFNGVLVGEIVRLYPGFMQEMFTDADTYIVHFPMDMPPILKLLLVTSVFLIDFTYFEDRNQDQHRNGGMHSGMHSSF | not soluble
8 | GASIVGSWVEPVPGLEGQVQGIKMEEGGVASSVNMATLVYESWKQEGTKLILTGKSIGNGQTIEFVDTMDIKRLTADSLVLDNQGMEIRYAKQK | soluble
9 | MPVSDQLIDQLLADYESPQDLLGEQGILRQLTKKLAERALEAEMELHLGYAKHDAAGFNTGNSRNGKSRKSVRSIHGDIELETPRDRNGSFEPKLIKKGEKQLGGFDERIVSLYARGMSTRDIQAHFEETYGVEVSPTFISQITNAVLDEVKAWQLRPLAPVYPIVYLDCLVVRSRDSGSIQNKSVYLALGVNTDGEKELLGLWIAQTEGAKFWLSVMNELKNRGVEDIFIACVDGLKGFPDAIEAVYPKTQVQLCIVHQIRNSLRFVSWKERKAVAADLKTIYGAATLQQAELALEQFAKTWDKQHPSISKSWRENWTRLSVFFDYPPEIRKVIYTTNAIESLNASLRQVTKTRRSFPSDDAVLKLLYLALHQIAKKWTMPLRDWKPAMTQFMIMYSDRVSL | not soluble
10 | MTPVQIAAVVVTYESSSTIDACLSRLRAAEGISEIRVVDNASSDDTLEVVQRHALADARLHFIANPDNPGFATACNQGARDSQAPWLVFINPDLMIARDTLLQLYHRAAGHPAVLLGVEQVDEQGRPDAAVRRRDPDFAAMLRAPRAAANLAVPADPSRALQPVDAISGALMLMQRSLFDRLDGWDGSYRLHAEDLDLCRRARQAGALVAVANDLHVLHVRGVSSRARPFFVEWHKHRGLWRYFRKFEADRRGLLTRLGVWLAIWSHAAAQVPRLLQNKLEHHHHHH | not soluble
11 | MKECKKCKSNEYTNKQLVMMINECGHPLCKNCVDNIFALNSGNCHVCNRVLRKNNFREQIYEDPLIDKETFLRRKLRKIYNLKQDDFENLREFGDYQERFETVVYNLVFETNVNETNAEIQAFEEKHKEQIDRNKRRLDDDQKWIEDQLREERAMKARMTDHMEMDAKEQEAASAVTDTRKIMDELRDSNVAAEVILDRERKKQIEKELEEKEEQEKRKRRNKEMLQTRKRAAENMSFNTVIRVAGRAYVHQPLELVINGPPMPNVSEIEALGYLAHIRQPTAEYIAGGYTPMLGCSRALFEARIDLFSF | not soluble
12 | ASMTGGQQMGRDPGMTVTSQVKPEDEMDNWGRLILDGVSYSDMVGARDRPKEITWFDYWMSLANEYEQEAERKVALGHDLSAGELLMSAALCAQYAQFLWFDERRQKGQARKVELYQKAAPLLSPPAERHELVVDGIPMPVYVRIPEGPGPHPAVIMLGGLESTKEESFQMENLVLDRGMATATFDGPGQGEMFEYKRIAGDYEKYTSAVVDLLTKLEAIRNDAIGVLGRSLGGNYALKSAACEPRLAACISWGGFSDLDYWDLETPLTKESWKYVSKVDTLEEARLHVHAALETRDVLSQIACPTYILHGVHDEVPLSFVDTVLELVPAEHLNLVVEKDGDHCCHNLGIRPRLEMADWLYDVLVAGKKVAPTMKGWPLEHHHHHH | soluble
13 | MEGVELKEEWQDEDFPIPLPEDDSIEADILAITGPEDQPGSLEVNGNKVRKKLMAPDISLTLDPSDGSVLSDDLDESGEIDLDGLDTPSENSNEFEWEDDLPKPKTTEVIRKGSITEYTAAEEKEDGRRWRMFRIGEQDHRVDMKAIEPYKKVISHGGYYGDGLNAIVVFAVCFMPESSQPNYRYLMDNLFKYVIGTLELLVAENYMIVYLNGATTRRKMPSLGWLRKCYQQIDRRLRKNLKSLIIVHPSWFIRTLLAVTRPFISSKFSQKIRYVFNLAELAELVPMEYVGIPECIKQVDQELNGKQDEPKNEQLEHHHHHH | soluble
14 | MGSDKIHHHHHHMAGVSPLSNRWSKQVLSNFEQAASTYNSQAQLQRAVAWRLARQCARQHIPAGFWVDLGSGTGLMADALEACNPHQAVLRVDGCHEMLKHHHHSSQTLLWDLNLGVPSWPQLPSLLASSFALHWLINPLERLHEWMAALTPEGWLALALPVEGSFPQWHQAAATAGVSCTALPFPSQASLLDVLSSNNIRHQQLHQFTQQSPEVFQLLKPMRQIGAQASPCSTMGVGNWRHLKQAWPRCQNSGDAQLTWLIQLLLIQR | not soluble
15 | GPGSMDFVPTVAVIRANPVEGVRYAYTSTVSDNRYDSFVEDAVMQYSGNVNEADGSDRASPRFSGRSVVNLQRAILQCGDIRVSDKQDAEPVGVWRCLAGAILAACCFLRSYSTCPSESFDECGAEVCDAFVPAGVAMIIFSGVCDTRPLSFSEECPFSAAVTAATRLRTAVHVFGPAVVSSALGLRLQALANTTGGIWAPQFALSHVGYLMELAVRRNGQREMDSATNSRRQRELLVERYVVPPACLPQDPAQTGVASGENVSYLAWLCSACLATLVRHPHEEVGAIRMCPYCAASK | not soluble
16 | MSLSRLPVIVGFGGYNAAGRSSFHHGFRRMVIESMDPQARQETLAGLAVMMKLVKAEGGRYLAEDGTPLSPEDIERRYAERIFASTLVRRIEPQYLDPDAVHWHKVLEATPAEGQALTFKASPKQLPEPLPGNWSVTPAADGEVLVSIHERCEFKVDSYRPLTVKSAGQLPTGFEPGELYNSRFHPRGLQMSVVAATDAIRSTGIDWQTIVDNVQPDEIAVFSGSIMSQLDDNGFGGLMQSRLKGHRVSAKQLPLGFNSMPTDFINAYVLGSVGMTGSITGACATFLYNLQKGIDVITSGQARVVIVGNSEAPILPECIEGYSAMGALATEEGLRLIEGRDEVDFRRASRPFGENCGFTLAESSQYVVLMDDELALRLGADIHGAVTDVFINADGFKKSISAPGPGNYLTVAKAVASAVQIVGLDTVRHASFVHAHGSSTPANRVTESEILDRVASAFGIDGWPVTAVKAYVGHSLATASADQLISALGTFKYGILPGIKTIDKVADDVHQQRLSISNRDVRQDKPLEVCFINSKGFGGNNASGVVLSPRIAEKMLRRRHGEAAFAAYVEKREQTRGAARAYDQRALQGDLEIIYNFGQDLIDEQAIEVSAEQVTVPGFSQPLVYKKDARFSDMLDEGHHHHHH | soluble

Source: the DeepSol protein solubility set
